We go through four molecules from article PMC11926245 (Nature Communications, 2025).

Data set [1] concerns the molecule itself. Briefly: SEC-MALS; Superdex 200 Increase, 20 mM Na-Hepes pH 7.0, 200 mM NaCl; DNAJC12 3 mg/mL, TH, TH:DNAJC12 complex, TH(1-158) and TH(155-497) 2 mg/mL.
For the next data set, the target named is T1, DNAJC12-F193G (human, UniProt Q9UKB3-1 1-198, F193G).
T1 construct: source: E. coli BL21-CodonPlus(DE3)-RIL, purified (HisTrap, TEV cleavage, TALON, amylose, SEC); not shown: His6, N-terminal, cleaved; MBP, N-terminal, cleaved
Description: BLI; biotinylated TH or TH variant immobilised on streptavidin sensors; DNAJC12 or variant 0.01-4 μM in solution; PBS, 0.02% Tween-20, 0.5 mg/mL BSA, 25 °C; responses fitted to a one-site hyperbola. The settings on record: both partners purified.

T1 sequence (Q9UKB3 whole entry F193G): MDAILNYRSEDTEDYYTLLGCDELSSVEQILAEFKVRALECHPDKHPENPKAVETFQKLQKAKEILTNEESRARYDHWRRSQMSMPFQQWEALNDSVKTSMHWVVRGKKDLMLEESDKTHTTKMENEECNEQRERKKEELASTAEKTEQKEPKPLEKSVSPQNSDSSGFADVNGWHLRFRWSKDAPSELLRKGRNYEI

B1: TH-R202H (TH-p.R202H), variant associated with TH deficiency (enzyme)
chain: not shown
modifications: biotinylated with EZ-Link NHS-PEG4-Biotin for BLI only
Take B1: in data set [1], the stoichiometry N – broadly, a count of units in the complex or per binding partner – came out at 4.

B2: TH regulatory domain, TH(1-158) (domain or fragment, human, UniProt P07101-3 1-158, looked up)
chain: MPTPDATTPQAKGFRRAVSELDAKQAEAIMSPRFIGRRQSLIEDARKEREAAVAAAAAAVPSEPGDPLEAVAFEEKEGKAVLNLLFSPRATKPSALSRAVKVFETFEAKIHHLETRPAQRPRAGGPHLEYFVRLEVRRGDLAALLSGVRQVSEDVRSP
modifications: biotinylated with EZ-Link NHS-PEG4-Biotin for BLI only
Consider B2, for which the “stoichiometry N” value in data set [1] turned out to be 2.

B3: Tyrosine hydroxylase, wild-type (hTH1) (enzyme)
chain: not shown
modifications: biotinylated with EZ-Link NHS-PEG4-Biotin for BLI only
B3: the Kd (in general, the equilibrium constant for the complex coming apart) in the data set with DNAJC12-F193G amounted to 1180 nM.

B4: TH catalytic and oligomerization domains, TH(155-497) (domain or fragment)
chain: not shown
modifications: biotinylated with EZ-Link NHS-PEG4-Biotin for BLI only
For B4, the “stoichiometry N” value in data set [1] turned out to be 4.
